In paper PMC9680708:
pKd: −log10 of the molar value.

Experiments:
Experiment in all cases: other fluorescence titration
[1] = molecular target: FlAsH-labeled wild-type collybistin (CB) FRET sensor F1DA (rat)
[2] = molecular target: FlAsH-labeled collybistin FRET sensor F28DA (rat)
[3] = molecular target: FlAsH-labeled single-mutant (E262A) open-state collybistin FRET sensor F1smDA (rat)
[4] = molecular target: FlAsH-labeled collybistin FRET sensor F73DA (rat)
[5] = molecular target: FlAsH-labeled double-mutant (W24A/E262A) open-state collybistin FRET sensor F1dmDA (rat)
[6] = molecular target: FlAsH-labeled collybistin FRET sensor F99DA (rat)

Row | Substance | pKd [1] | species-weighted average fluorescence lifetime of CFP in the sensor with ligand [1] | species-weighted average fluorescence lifetime of CFP in the sensor with ligand [2] | pKd [3] | species-weighted average fluorescence lifetime of CFP in the sensor with ligand [3] | species-weighted average fluorescence lifetime of CFP in the sensor with ligand [4] | pKd [5] | species-weighted average fluorescence lifetime of CFP in the sensor with ligand [5] | species-weighted average fluorescence lifetime of CFP in the sensor with ligand [6]
1 | gephyrin linker followed by the E domain (GephLE) (domain or fragment) | 5.19 | 1.54 ns |  |  |  |  |  |  | 
2 | isolated gephyrin E domain (GephE) (domain or fragment) | 5.20 | 1.36 ns |  |  |  |  |  |  | 
3 | free SH3 domain of collybistin (domain or fragment) | 3.43 | 1.44 ns |  |  |  |  |  |  | 

Second part, the substance after the results:

Row | pKd [1] | species-weighted average fluorescence lifetime of CFP in the sensor with ligand [1] | species-weighted average fluorescence lifetime of CFP in the sensor with ligand [2] | pKd [3] | species-weighted average fluorescence lifetime of CFP in the sensor with ligand [3] | species-weighted average fluorescence lifetime of CFP in the sensor with ligand [4] | pKd [5] | species-weighted average fluorescence lifetime of CFP in the sensor with ligand [5] | species-weighted average fluorescence lifetime of CFP in the sensor with ligand [6] | Substance
4 | 5.35 | 1.56 ns | 1.4 ns | 4.33 | 0.62 ns | 1.03 ns | 4.37 | 0.64 ns | 1.2 ns | full-length gephyrin (GephFL) (from UniProt Q03555 1-768) (natural protein)
5 |  | 1.37 ns |  |  |  |  |  |  |  | intracellular cytosolic domain of neuroligin 2 (NL2icd) (from UniProt Q62888 700-836) (domain or fragment)
